Biological target: Tetanus neurotoxin (Clostridium tetani, UniProt P04958)
Assay: cryo-EM structure; epitopes of TT104 and TT110 on TeNT determined via cryo-EM
Conditions: both partners purified

Sequence of Tetanus neurotoxin (P04958 whole entry): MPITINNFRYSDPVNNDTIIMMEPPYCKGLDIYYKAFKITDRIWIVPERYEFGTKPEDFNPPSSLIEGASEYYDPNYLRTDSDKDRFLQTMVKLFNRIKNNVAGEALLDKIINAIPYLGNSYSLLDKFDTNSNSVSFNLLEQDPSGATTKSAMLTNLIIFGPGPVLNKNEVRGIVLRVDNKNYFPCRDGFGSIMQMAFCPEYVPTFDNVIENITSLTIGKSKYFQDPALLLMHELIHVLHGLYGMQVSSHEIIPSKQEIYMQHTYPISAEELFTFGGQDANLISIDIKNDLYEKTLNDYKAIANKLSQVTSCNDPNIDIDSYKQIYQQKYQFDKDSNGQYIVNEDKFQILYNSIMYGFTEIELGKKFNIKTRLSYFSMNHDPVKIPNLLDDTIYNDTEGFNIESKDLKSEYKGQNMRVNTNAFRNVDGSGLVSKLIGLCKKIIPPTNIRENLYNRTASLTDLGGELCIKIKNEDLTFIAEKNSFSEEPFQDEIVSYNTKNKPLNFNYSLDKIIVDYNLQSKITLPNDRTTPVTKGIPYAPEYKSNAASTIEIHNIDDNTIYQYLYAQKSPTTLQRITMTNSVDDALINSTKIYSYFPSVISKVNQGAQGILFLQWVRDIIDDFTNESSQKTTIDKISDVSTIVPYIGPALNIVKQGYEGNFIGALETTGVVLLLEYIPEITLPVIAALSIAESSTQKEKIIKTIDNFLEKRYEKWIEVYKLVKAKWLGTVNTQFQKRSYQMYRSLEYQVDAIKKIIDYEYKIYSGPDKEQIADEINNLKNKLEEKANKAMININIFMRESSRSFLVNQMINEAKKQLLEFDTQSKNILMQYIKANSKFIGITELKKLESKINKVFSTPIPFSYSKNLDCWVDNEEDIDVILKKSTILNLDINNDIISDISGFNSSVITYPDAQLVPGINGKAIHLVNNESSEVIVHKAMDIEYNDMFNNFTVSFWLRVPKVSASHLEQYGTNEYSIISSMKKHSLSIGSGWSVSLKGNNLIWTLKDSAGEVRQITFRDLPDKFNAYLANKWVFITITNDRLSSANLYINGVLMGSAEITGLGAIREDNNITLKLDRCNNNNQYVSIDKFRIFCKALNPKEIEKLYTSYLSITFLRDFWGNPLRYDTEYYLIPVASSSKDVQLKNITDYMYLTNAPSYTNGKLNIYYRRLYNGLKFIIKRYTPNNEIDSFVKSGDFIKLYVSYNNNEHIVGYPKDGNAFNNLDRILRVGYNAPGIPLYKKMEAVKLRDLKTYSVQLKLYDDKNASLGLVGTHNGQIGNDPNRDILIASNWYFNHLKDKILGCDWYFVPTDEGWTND

Binder	binding result
TT104 human monoclonal antibody (antibody, V domains shown, also called humAb TT104) VH: QLQLQESGPGLVRPSETLSLTCSVSDDSMGSSTYYWAWIRQPPGKGLEWIGNVYYNGVTYYNSSLESRLTLSIDPSKNQFSLILSSVTAADTAVYYCARQADNWFDPWGQGTLVTVSS VL: EIMMTQSPATLSVSPGERATLSCRASQSVGSDLAWYQQKPGQAPRLLIYGASYRATGIPARFSGGGSGTEFTLTISSMQSEDFAVYYCQQYYNWPPYTFGQGTKVEIK	binds
TT110 human monoclonal antibody (antibody, V domains shown, also called humAb TT110) VH: QVQLMQSGAEVQKPGASVKVSCQASGFTLNNYYIHWLRQAPGQGFEWMGIFNPSSGTRTYAQKFQGRISMTADASTTTLYMELSGLTSEDAGVYFCARIGGSTYGRLMTYYFDHWGQGTVVAVSS VL: EVVLTQSPVTLSVSPGGRGTLSCRASRSISTTLAWYQQKPGQAPRLLIYGASTRATGIPARFTGSGSGTEFTLTISSLQSEDFAVYYCQQYNDWPVTFGQGTQVEVK	binds
